Reference: patent US20110311523A1

Target: human platelet derived growth factor-α receptor (PDGFRα) (human) (UniProt P16234)
Test: cell-based or functional assay

Sequence of human platelet derived growth factor-α receptor (PDGFRα) (human) (P16234 24-1089): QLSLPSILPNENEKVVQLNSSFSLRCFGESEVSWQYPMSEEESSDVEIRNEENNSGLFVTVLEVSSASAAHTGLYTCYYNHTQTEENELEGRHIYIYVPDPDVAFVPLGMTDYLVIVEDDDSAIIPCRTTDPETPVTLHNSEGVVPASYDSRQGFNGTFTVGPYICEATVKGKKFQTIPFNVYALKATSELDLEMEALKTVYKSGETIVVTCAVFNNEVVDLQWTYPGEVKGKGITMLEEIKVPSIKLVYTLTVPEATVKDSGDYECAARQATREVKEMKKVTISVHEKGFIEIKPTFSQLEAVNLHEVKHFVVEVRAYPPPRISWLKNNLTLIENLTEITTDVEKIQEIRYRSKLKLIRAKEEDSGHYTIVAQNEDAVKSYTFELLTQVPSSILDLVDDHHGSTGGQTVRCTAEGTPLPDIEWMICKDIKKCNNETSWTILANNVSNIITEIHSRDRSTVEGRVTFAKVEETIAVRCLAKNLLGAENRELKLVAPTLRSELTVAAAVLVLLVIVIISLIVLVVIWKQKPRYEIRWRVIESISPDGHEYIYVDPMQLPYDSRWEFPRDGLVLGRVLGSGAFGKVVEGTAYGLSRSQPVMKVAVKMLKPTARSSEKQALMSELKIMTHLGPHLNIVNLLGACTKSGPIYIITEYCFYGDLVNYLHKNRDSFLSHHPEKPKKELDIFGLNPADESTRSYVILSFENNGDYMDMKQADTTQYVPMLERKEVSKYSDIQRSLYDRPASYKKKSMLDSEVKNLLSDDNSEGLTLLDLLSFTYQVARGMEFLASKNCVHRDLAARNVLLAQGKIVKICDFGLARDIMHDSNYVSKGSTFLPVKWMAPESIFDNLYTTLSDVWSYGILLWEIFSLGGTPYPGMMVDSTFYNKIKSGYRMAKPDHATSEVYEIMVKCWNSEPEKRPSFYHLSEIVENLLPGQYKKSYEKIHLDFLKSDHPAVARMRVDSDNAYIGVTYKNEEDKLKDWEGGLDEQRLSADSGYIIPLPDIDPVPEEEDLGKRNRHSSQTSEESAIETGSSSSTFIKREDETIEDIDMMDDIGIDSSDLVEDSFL

Substance | decrease in HCMV entry (pp65 positive cells) [%]
IMC-3G3, a humanized PDGFRα blocking antibody (ImClone Inc.) | 45
PDGF-AA (from UniProt P04085 87-211) (ligand) | 30
